Measurements published in patent publication US20190202896A1 (NOVOBIND LIVESTOCK THERAPEUTICS, published 2019).

Target: T1, FimA (Salmonella Type-1 fimbrial protein, A chain), recombinant (Salmonella (serovar ), UniProt P37921 23-185)
T1 sequence: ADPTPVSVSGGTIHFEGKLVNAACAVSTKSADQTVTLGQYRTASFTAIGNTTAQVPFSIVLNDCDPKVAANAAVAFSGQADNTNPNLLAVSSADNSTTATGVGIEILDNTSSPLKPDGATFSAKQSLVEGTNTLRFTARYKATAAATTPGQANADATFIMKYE
Assay: phage ELISA, antigen-coated wells, anti-M13-HRP, A405

B1: NBX0201 (VHH)
VHH: QVQLQESGGGLVQAGGSLRLSCAASTRTSSSSYTAWFRQAPGNEREFVASISYSGTTTYYADPVKGRFTISRDSAKNTVYLQMNSLKPDDTAVYYCAADRRSTIGSPRQQYAYWGQGTQVTVSS
notes: also called Clone 98
- binding over background (PBS-only wells): ≥ 4 fold

B2: NBX0202 (VHH)
VHH: QVQLQESGGGLVQAGGSLRLSCAASGRTSSSAYTAWFRQAPGNEREFVASISWSGTTTYHAHPVKGRFTIFRDNAKNTVYLQMNSLKPDDTGVYYCAADRRSTIGTPREQYAYWGQGTQVTVSS
notes: also called Clone 99
- binding over background (PBS-only wells): ≥ 4 fold

B3: NBX0203 (VHH)
VHH: QVQLQQSGGGLVQAGGSLRLSCAASGRTSPSSYTAWFRQAPGNEREFVASISWSGTTTYYADPVKGRFTISRDNAKNTVYLQMNSLKPDDTAVYYCAADRRSTIGSPRQQYAYWGQGTQVTVSS
notes: also called Clone 100
- binding over background (PBS-only wells): ≥ 4 fold
